The values below come from PMC4993999, “Asymmetry in inward- and outward-affinity constant of transport explain unidirectional lysine flux in Saccharomyces cerevisiae” (Scientific Reports, 2016).

Substrate in series [1]: NCCCC[C@H](N)C(=O)O
Kind of series: purified protein. Particulars: PMF-driven: ΔΨ -84 mV, ZΔpH -84 mV, external pH 6.0, internal pH 7.3, 30 °C, labelled compound.

Substrate in series [2]: NCCCC[C@H](N)C(=O)O
Description: purified protein. In kind it is biochemical, Saccharomyces cerevisiae. Particulars: PMF-driven: ΔΨ -84 mV, ZΔpH -84 mV, external pH 6.0, internal pH 7.3, 30 °C, labelled compound, high-affinity component (out-to-in) of hyperbola plus linear fit.

Substrate in series [3]: NCCCC[C@H](N)C(=O)O
Description: cells, lysate or membranes. In kind it is cell-based, Saccharomyces cerevisiae. Conditions: whole cells 22∆6AAL, 100 mM potassium phosphate, 10 mM glucose, pH 6.0, 30 °C, labelled compound.

B1: LysP (Salmonella enterica subsp. enterica serovar Typhimurium str. LT2) (protein)
chain: MGSKTKTTEAPALRRELKARHLTMIAIGGSIGTGLFVASGATISQAGPGGALFSYILIGLMVYFLMTSLGELAAYMPVSGSFATYGQNYVEEGFGFALGWNYWYNWAVTIAVDLVAAQLVMGWWFPDTPGWIWSALFLCVIFLLNYISVRGFGEAEYWFSLIKVATVIIFIIVGVAMIIGIFKGVEPVGWSNWTTGDAPFAGGFAAMIGVAMIVGFSFQGTELIGIAAGESENPEKNIPRAVRQVFWRILLFYVFAILIISLIIPYTDPNLLRNDVKDISVSPFTLVFQHAGLLSAAAIMNAVILTAVLSAGNSGMYASTRMLYTLACDGKAPRIFAKLSRGGVPRNALYATTVIAGLCFLTSMFGNQTVYLWLLNTSGMTGFIAWLGIAISHYRFRRGYVLQGYDVNDLPYRSGFFPLGPIFAFVLCLIITLGQNYEAFLKDTIDWGGVAATYIGIPLFLLIWFGYKLIKGTHFVRYSEMHFPERVKK
With B1, the Km (as a rule, the concentration of substrate that gives half-maximal velocity) in the series “purified protein [1]” is 1.5 ± 0.2 µM.

B2: Lyp1-GFP (Lyp1-TEV-GFP-His10) (Saccharomyces cerevisiae S288C) (protein)
chain: MGRFSNIITSNKWDEKQNNIGEQSMQELPEDQIEHEMEAIDPSNKTTPYSIDEKQYNTKKKHGSLQGGAIADVNSITNSLTRLQVVSHETDINEDEEEAHYEDKHVKRALKQRHIGMIALGGTIGTGLFVGISTPLSNAGPVGSLIAYIFMGTIVYFVTQSLGEMATFIPVTSSITVFSKRFLSPAFGVSNGYMYWFNWAITYAVEVSVIGQVIEYWTDKVPLAAWIAIFWVIITLMNFFPVKVYGEFEFWVASVKVLAIMGYLIYALIIVCGGSHQGPIGFRYWRNPGAWGPGIISSDKSEGRFLGWVSSLINAAFTYQGTELVGITAGEAANPRKTVPRAINKVVFRIVLFYIMSLFFIGLLVPYNDSRLSASSAVIASSPFVISIQNAGTYALPDIFNAVVLITVVSAANSNVYVGSRVLYSLARTGNAPKQFGYVTRQGVPYLGVVCTAALGLLAFLVVNNNANTAFNWLINISTLAGLCAWLFISLAHIRFMQALKHRGISRDDLPFKAKLMPYGAYYAAFFVTVIIFIQGFQAFCPFKVSEFFTSYISLILLAVVFIGCQIYYKCRFIWKLEDIDIDSDRREIEAIIWEDDEPKNLWEKFWAAVA
notes: full length, C-terminal TEV-GFP-His10 kept; expressed in Pichia pastoris SMD1163; purified and reconstituted in yeast/E. coli lipid vesicles
On to B2, for which the Km in the series “purified protein [2]” stood at 20 ± 14 µM.

B3: Lyp1-YPet (Saccharomyces cerevisiae S288C) (protein)
chain: B2 chain
notes: full length, C-terminal TEV-YPet-His8 kept; expressed from plasmid under native LYP1 promoter in S. cerevisiae 22∆6AAL
Consider B3, for which the Michaelis-Menten constant (Km) in series [3] came to 10 ± 0.8 µM.
